Data reported in the supplement of paper PMC10567573.

B1: CDC25A (parent)
chain: KKFRTKSRTWAGEKSKREMYSRLK

Variants of: B1
Assay: protein stability index of a GFP-peptide fusion (GPS, HEK-293T) (PSI 1-6); higher = more stable
Conditions: c terminus: a fixed tail appended
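Further: lentivirally expressed fusions sorted by FACS into six bins by GFP to DsRed ratio, PSI derived from sequencing read proportions per bin multiplied by bin number.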

For NKFRTKSRTWAGEKSKREMYSRLK [K1N], which protein stability index is on record?
Its protein stability index is 2.7.

Which protein stability index does the source give for PKFRTKSRTWAGEKSKREMYSRLK [K1P] here?
The protein stability index was 3.25.

With QKFRTKSRTWAGEKSKREMYSRLK [K1Q] as the variant, how does the protein stability index read?
Its protein stability index is 3.35.

With RKFRTKSRTWAGEKSKREMYSRLK [K1R] as the variant, how does the protein stability index read?
The protein stability index was 3.04.

For SKFRTKSRTWAGEKSKREMYSRLK [K1S], which protein stability index is on record?
The protein stability index was 3.22.

With TKFRTKSRTWAGEKSKREMYSRLK [K1T] as the variant, how does the protein stability index read?
The protein stability index was 4.1.

Which protein stability index does the source give for VKFRTKSRTWAGEKSKREMYSRLK [K1V] here?
Its protein stability index is 2.65.

For WKFRTKSRTWAGEKSKREMYSRLK [K1W], which protein stability index is on record?
Its protein stability index is 2.37.

For YKFRTKSRTWAGEKSKREMYSRLK [K1Y], which protein stability index is on record?
Its protein stability index is 2.71.

With KCFRTKSRTWAGEKSKREMYSRLK [K2C] as the variant, how does the protein stability index read?
Its protein stability index is 2.38.

With KDFRTKSRTWAGEKSKREMYSRLK [K2D] as the variant, how does the protein stability index read?
Its protein stability index is 3.22.

Which protein stability index does the source give for KEFRTKSRTWAGEKSKREMYSRLK [K2E] here?
Its protein stability index is 3.27.

Which protein stability index does the source give for KGFRTKSRTWAGEKSKREMYSRLK [K2G] here?
Its protein stability index is 4.12.

Which protein stability index does the source give for KHFRTKSRTWAGEKSKREMYSRLK [K2H] here?
Its protein stability index is 1.93.

For KIFRTKSRTWAGEKSKREMYSRLK [K2I], which protein stability index is on record?
Its protein stability index is 2.38.

With KMFRTKSRTWAGEKSKREMYSRLK [K2M] as the variant, how does the protein stability index read?
Its protein stability index is 1.76.

Which protein stability index does the source give for KPFRTKSRTWAGEKSKREMYSRLK [K2P] here?
The protein stability index was 2.6.

For KSFRTKSRTWAGEKSKREMYSRLK [K2S], which protein stability index is on record?
The protein stability index was 3.06.

For KWFRTKSRTWAGEKSKREMYSRLK [K2W], which protein stability index is on record?
Its protein stability index is 2.63.

Which protein stability index does the source give for KYFRTKSRTWAGEKSKREMYSRLK [K2Y] here?
Its protein stability index is 3.09.

With KKARTKSRTWAGEKSKREMYSRLK [F3A] as the variant, how does the protein stability index read?
The protein stability index was 3.28.

With KKCRTKSRTWAGEKSKREMYSRLK [F3C] as the variant, how does the protein stability index read?
Its protein stability index is 3.22.

Which protein stability index does the source give for KKGRTKSRTWAGEKSKREMYSRLK [F3G] here?
The protein stability index was 3.49.

With KKHRTKSRTWAGEKSKREMYSRLK [F3H] as the variant, how does the protein stability index read?
The protein stability index was 3.1.

Which protein stability index does the source give for KKIRTKSRTWAGEKSKREMYSRLK [F3I] here?
The protein stability index was 3.06.

With KKKRTKSRTWAGEKSKREMYSRLK [F3K] as the variant, how does the protein stability index read?
Its protein stability index is 3.16.

With KKLRTKSRTWAGEKSKREMYSRLK [F3L] as the variant, how does the protein stability index read?
The protein stability index was 3.49.

With KKMRTKSRTWAGEKSKREMYSRLK [F3M] as the variant, how does the protein stability index read?
Its protein stability index is 3.61.

With KKNRTKSRTWAGEKSKREMYSRLK [F3N] as the variant, how does the protein stability index read?
The protein stability index was 3.12.

Which protein stability index does the source give for KKPRTKSRTWAGEKSKREMYSRLK [F3P] here?
The protein stability index was 2.85.

For KKRRTKSRTWAGEKSKREMYSRLK [F3R], which protein stability index is on record?
Its protein stability index is 3.51.

Which protein stability index does the source give for KKSRTKSRTWAGEKSKREMYSRLK [F3S] here?
The protein stability index was 3.48.

With KKTRTKSRTWAGEKSKREMYSRLK [F3T] as the variant, how does the protein stability index read?
The protein stability index was 3.59.

With KKWRTKSRTWAGEKSKREMYSRLK [F3W] as the variant, how does the protein stability index read?
Its protein stability index is 3.48.

For KKYRTKSRTWAGEKSKREMYSRLK [F3Y], which protein stability index is on record?
The protein stability index was 3.

Which protein stability index does the source give for KKFATKSRTWAGEKSKREMYSRLK [R4A] here?
Its protein stability index is 2.6.

For KKFCTKSRTWAGEKSKREMYSRLK [R4C], which protein stability index is on record?
Its protein stability index is 3.02.

With KKFDTKSRTWAGEKSKREMYSRLK [R4D] as the variant, how does the protein stability index read?
The protein stability index was 3.04.

Which protein stability index does the source give for KKFETKSRTWAGEKSKREMYSRLK [R4E] here?
Its protein stability index is 3.76.

Which protein stability index does the source give for KKFFTKSRTWAGEKSKREMYSRLK [R4F] here?
Its protein stability index is 2.71.

With KKFGTKSRTWAGEKSKREMYSRLK [R4G] as the variant, how does the protein stability index read?
Its protein stability index is 2.5.

Which protein stability index does the source give for KKFHTKSRTWAGEKSKREMYSRLK [R4H] here?
Its protein stability index is 3.6.

With KKFITKSRTWAGEKSKREMYSRLK [R4I] as the variant, how does the protein stability index read?
The protein stability index was 2.3.

Which protein stability index does the source give for KKFKTKSRTWAGEKSKREMYSRLK [R4K] here?
The protein stability index was 3.18.

With KKFLTKSRTWAGEKSKREMYSRLK [R4L] as the variant, how does the protein stability index read?
Its protein stability index is 2.47.

For KKFMTKSRTWAGEKSKREMYSRLK [R4M], which protein stability index is on record?
Its protein stability index is 3.46.

Which protein stability index does the source give for KKFNTKSRTWAGEKSKREMYSRLK [R4N] here?
The protein stability index was 3.2.

With KKFPTKSRTWAGEKSKREMYSRLK [R4P] as the variant, how does the protein stability index read?
Its protein stability index is 3.09.

For KKFQTKSRTWAGEKSKREMYSRLK [R4Q], which protein stability index is on record?
Its protein stability index is 3.86.

Which protein stability index does the source give for KKFSTKSRTWAGEKSKREMYSRLK [R4S] here?
Its protein stability index is 2.42.

For KKFTTKSRTWAGEKSKREMYSRLK [R4T], which protein stability index is on record?
The protein stability index was 3.37.

Which protein stability index does the source give for KKFVTKSRTWAGEKSKREMYSRLK [R4V] here?
The protein stability index was 3.79.

With KKFWTKSRTWAGEKSKREMYSRLK [R4W] as the variant, how does the protein stability index read?
Its protein stability index is 2.71.

With KKFYTKSRTWAGEKSKREMYSRLK [R4Y] as the variant, how does the protein stability index read?
The protein stability index was 3.63.

Which protein stability index does the source give for KKFRAKSRTWAGEKSKREMYSRLK [T5A] here?
Its protein stability index is 2.15.

With KKFRCKSRTWAGEKSKREMYSRLK [T5C] as the variant, how does the protein stability index read?
Its protein stability index is 2.87.

For KKFREKSRTWAGEKSKREMYSRLK [T5E], which protein stability index is on record?
The protein stability index was 3.37.

For KKFRFKSRTWAGEKSKREMYSRLK [T5F], which protein stability index is on record?
The protein stability index was 3.25.

For KKFRGKSRTWAGEKSKREMYSRLK [T5G], which protein stability index is on record?
The protein stability index was 3.33.

Which protein stability index does the source give for KKFRHKSRTWAGEKSKREMYSRLK [T5H] here?
Its protein stability index is 2.81.

Which protein stability index does the source give for KKFRIKSRTWAGEKSKREMYSRLK [T5I] here?
The protein stability index was 2.5.

With KKFRKKSRTWAGEKSKREMYSRLK [T5K] as the variant, how does the protein stability index read?
Its protein stability index is 3.12.

Which protein stability index does the source give for KKFRMKSRTWAGEKSKREMYSRLK [T5M] here?
Its protein stability index is 2.62.

Which protein stability index does the source give for KKFRNKSRTWAGEKSKREMYSRLK [T5N] here?
Its protein stability index is 3.56.

Which protein stability index does the source give for KKFRPKSRTWAGEKSKREMYSRLK [T5P] here?
Its protein stability index is 2.39.

For KKFRQKSRTWAGEKSKREMYSRLK [T5Q], which protein stability index is on record?
Its protein stability index is 3.23.

With KKFRRKSRTWAGEKSKREMYSRLK [T5R] as the variant, how does the protein stability index read?
Its protein stability index is 3.06.

With KKFRSKSRTWAGEKSKREMYSRLK [T5S] as the variant, how does the protein stability index read?
The protein stability index was 3.71.

Which protein stability index does the source give for KKFRVKSRTWAGEKSKREMYSRLK [T5V] here?
The protein stability index was 3.85.

With KKFRWKSRTWAGEKSKREMYSRLK [T5W] as the variant, how does the protein stability index read?
Its protein stability index is 3.02.

With KKFRYKSRTWAGEKSKREMYSRLK [T5Y] as the variant, how does the protein stability index read?
The protein stability index was 3.24.

Which protein stability index does the source give for KKFRTASRTWAGEKSKREMYSRLK [K6A] here?
Its protein stability index is 1.88.

Which protein stability index does the source give for KKFRTCSRTWAGEKSKREMYSRLK [K6C] here?
The protein stability index was 2.71.

For KKFRTDSRTWAGEKSKREMYSRLK [K6D], which protein stability index is on record?
The protein stability index was 3.57.

With KKFRTFSRTWAGEKSKREMYSRLK [K6F] as the variant, how does the protein stability index read?
Its protein stability index is 2.37.

With KKFRTGSRTWAGEKSKREMYSRLK [K6G] as the variant, how does the protein stability index read?
Its protein stability index is 3.23.

For KKFRTHSRTWAGEKSKREMYSRLK [K6H], which protein stability index is on record?
Its protein stability index is 3.44.

With KKFRTISRTWAGEKSKREMYSRLK [K6I] as the variant, how does the protein stability index read?
The protein stability index was 2.01.

With KKFRTLSRTWAGEKSKREMYSRLK [K6L] as the variant, how does the protein stability index read?
Its protein stability index is 2.36.

For KKFRTMSRTWAGEKSKREMYSRLK [K6M], which protein stability index is on record?
Its protein stability index is 2.91.

Which protein stability index does the source give for KKFRTNSRTWAGEKSKREMYSRLK [K6N] here?
Its protein stability index is 2.92.

For KKFRTPSRTWAGEKSKREMYSRLK [K6P], which protein stability index is on record?
Its protein stability index is 2.93.

Which protein stability index does the source give for KKFRTQSRTWAGEKSKREMYSRLK [K6Q] here?
Its protein stability index is 2.58.

With KKFRTSSRTWAGEKSKREMYSRLK [K6S] as the variant, how does the protein stability index read?
The protein stability index was 2.32.

With KKFRTTSRTWAGEKSKREMYSRLK [K6T] as the variant, how does the protein stability index read?
The protein stability index was 2.81.

For KKFRTVSRTWAGEKSKREMYSRLK [K6V], which protein stability index is on record?
Its protein stability index is 2.42.

Which protein stability index does the source give for KKFRTYSRTWAGEKSKREMYSRLK [K6Y] here?
The protein stability index was 2.92.

With KKFRTKARTWAGEKSKREMYSRLK [S7A] as the variant, how does the protein stability index read?
The protein stability index was 3.3.

With KKFRTKCRTWAGEKSKREMYSRLK [S7C] as the variant, how does the protein stability index read?
Its protein stability index is 2.39.

Which protein stability index does the source give for KKFRTKDRTWAGEKSKREMYSRLK [S7D] here?
Its protein stability index is 3.24.

For KKFRTKERTWAGEKSKREMYSRLK [S7E], which protein stability index is on record?
The protein stability index was 2.92.

For KKFRTKFRTWAGEKSKREMYSRLK [S7F], which protein stability index is on record?
Its protein stability index is 2.4.

Which protein stability index does the source give for KKFRTKGRTWAGEKSKREMYSRLK [S7G] here?
Its protein stability index is 2.78.

With KKFRTKHRTWAGEKSKREMYSRLK [S7H] as the variant, how does the protein stability index read?
Its protein stability index is 3.51.
